# Experiments:
# [1] = molecular target: HXB2-gp41-interf-GCN4 (HIV-1 isolate HXB2) (UniProt P04578); assay: SPR, His-4E10 scFv on Ni-NTA chip, HXB2gp41-interf-GCN4 flowing at 50 nM, single concentration
# [2] = molecular target: biotinylated 4E10 epitope peptide; assay: SPR, biotinylated 4E10 epitope peptide on SA chip, 4E10 scFv flowing
# [3] = molecular target: 92UG-gp41-inter-Fd (HIV-1 isolate 92UG037.8); assay: SPR, 92UGgp41-inter-Fd immobilized on CM-5, 4E10 scFv flowing at 50 nM, single concentration
# [4] = molecular target: 92UG-gp140-Fd trimer (HIV-1 isolate 92UG037.8); assay: SPR, 92UGgp140-Fd immobilized, 2G12 Fab flowing, 1:1 Langmuir model
# [5] = molecular target: HXB2-gp41-inter-GCN4 (HIV-1 isolate HXB2) (UniProt P04578); assay: SPR, 2F5 Fab immobilized, HXB2gp41-inter-GCN4 flowing, 1:1 Langmuir model
# T20 peptide = assay: SPR, 2F5 Fab immobilized, T20 flowing
# [6] = molecular target: 92UG-gp41-inter-Fd (HIV-1 isolate 92UG037.8); assay: SPR, 92UGgp41-inter-Fd immobilized, 2F5 Fab flowing
# [7] = molecular target: 92UG-gp41-post (HIV-1 isolate 92UG037.8); assay: SPR, 2F5 Fab immobilized, 92UGgp41-post flowing
# [8] = molecular target: short 2F5 epitope peptide; assay: SPR, 2F5 epitope peptide immobilized, 2F5 Fab flowing
# [9] = molecular target: HXB2-gp41-inter-GCN4 (HIV-1 isolate HXB2) (UniProt P04578); assay: SPR, 2F5 Fab immobilized, HXB2gp41-inter-GCN4 flowing; dissociation phase virtually flat, actual off-rate probably slower
# [10] = molecular target: short 2F5 epitope peptide; assay: SPR, 2F5 Fab immobilized, 2F5 epitope peptide flowing
# [11] = molecular target: 92UG-gp41-inter-Fd (HIV-1 isolate 92UG037.8); assay: SPR, told of the gp41-inter proteins as a group; Table 1 ties this value to 92UGgp41-inter-Fd
# [12] = molecular target: 92UG-gp41-inter-Fd (HIV-1 isolate 92UG037.8); assay: SPR, 2F5 Fab immobilized, 92UGgp41-inter-Fd flowing, 1:1 Langmuir model
# [13] = molecular target: 92UG-gp41-inter-Fd (HIV-1 isolate 92UG037.8); assay: SPR, told of the gp41-inter proteins as a group
# [14] = molecular target: HXB2-gp41-inter-GCN4 (HIV-1 isolate HXB2) (UniProt P04578); assay: SPR, told of the gp41-inter proteins as a group
# [15] = molecular target: 92UG-gp41-inter-Fd (HIV-1 isolate 92UG037.8); assay: SPR, 2F5 Fab immobilized, 92UGgp41-inter-Fd flowing; dissociation phase virtually flat, actual off-rate probably slower
# [16] = molecular target: monomeric 92UG-gp120 core protein (HIV-1 isolate 92UG037); assay: SPR, b6 IgG immobilized, 92UG gp120 flowing, single analyte concentration
# [17] = molecular target: monomeric 92UG-gp120 core protein (HIV-1 isolate 92UG037); assay: SPR, b12 IgG immobilized, 92UG gp120 flowing, single analyte concentration
# [18] = molecular target: monomeric 92UG-gp120 core protein (HIV-1 isolate 92UG037); assay: SPR; told with a reference to Rits-Volloch et al. 2006 and FIG. 6C
substance,measurement,setting,value
4E10 single-chain Fv fragment (scFv),Kd,[1],2.98 nM
same,koff,[1],0.000443 s⁻¹
same,kon,[1],149000 M⁻¹ s⁻¹
same,Kd,[2],18.6 nM
same,koff,[2],0.000685 s⁻¹
same,kon,[2],36900 M⁻¹ s⁻¹
same,Kd,[3],1.07 nM
same,koff,[3],0.000171 s⁻¹
same,kon,[3],160000 M⁻¹ s⁻¹
Fab fragment of broadly neutralizing antibody 2G12,Kd,[4],17.9 nM
same,koff,[4],0.000958 s⁻¹
same,kon,[4],53500 M⁻¹ s⁻¹
Fab fragment of mAb 2F5,Kd,[5],8.96 nM
same,kon,[5],6820 M⁻¹ s⁻¹
same,Kd,T20 peptide,4.79 nM
same,koff,T20 peptide,0.00217 s⁻¹
same,kon,T20 peptide,454000 M⁻¹ s⁻¹
same,Kd,[6],3.24 nM
same,koff,[6],0.000496 s⁻¹
same,kon,[6],153000 M⁻¹ s⁻¹
same,Kd,[7],1410 nM
same,koff,[7],0.00243 s⁻¹
same,kon,[7],1660 M⁻¹ s⁻¹
same,Kd,[8],5.33 nM
same,koff,[8],0.0015 s⁻¹
same,kon,[8],282000 M⁻¹ s⁻¹
same,koff,[9],6.11e-05 s⁻¹
same,Kd,[10],3.83 nM
same,koff,[10],0.00329 s⁻¹
same,kon,[10],859000 M⁻¹ s⁻¹
same,koff,[11],< 1.4e-05 s⁻¹
same,Kd,[12],1.38 nM
same,kon,[12],10000 M⁻¹ s⁻¹
same,Kd,[13],< 10 nM
same,Kd,[14],< 10 nM
same,koff,[15],1.39e-05 s⁻¹
mAb b6 whole IgG (antibody),Kd,[16],2.69 nM
same,koff,[16],0.000151 s⁻¹
same,kon,[16],56200 M⁻¹ s⁻¹
mAb b12 whole IgG (antibody),Kd,[17],993 nM
same,koff,[17],0.0149 s⁻¹
same,kon,[17],15000 M⁻¹ s⁻¹
same,Kd,[18],1400 nM

# — patent US20110086041A1
